Test results reported in the DeepSol protein solubility set.

Experiment: soluble on expression in E. coli; label from the status in PepcDB or PDB records

| Sequence | soluble on expression in E. coli |
| --- | --- |
| MSLRKIIPINNNWYFKADYEEGYEKVDDLRSFENVNLPHTNIELPYNYFDEKMYQIKSCYKYPLHISEKYRDKVIYIHFEGVMAYAQVYLNGLYIGEHKGGYTPFDIRIDEVYDWKKELNMLTVVVDSTERSDIPPKGGQIDYLTYGGIYREVSLGIYDDVFIKNIKVETHGIYDNEKSLNLIVHLENLNHQSGNVKFKVKINDKNGKEVFYKEFNTYLDAVKDVYSFNIENLKDIKLWDVDNPNLYEIKVGMKINNFSDEYDNKFGFREAVFKPDGFYLNGRKLKLRGLNRHQSYPYVGYAMPRRVQEKDAEILKNELHLNIVRTSHYPQSKHFLNKCDELGLLVFEEIPGWQYIGNSEWKKVAEQNLREMITRDWNHPSIILWGVRINESQDDDAFYKNMNKIAHEIDPTRQTGGVRYITNSSFLEDVYTFNDFIHDGINKPLRKQQEVTGLEHNVPYLVTEYNGHMYPTKRFDNEERQMEHCLRHLRIQNASYLDDSISGAIGWCAFDYNTHKDFGSGDRICYHGVMDMFRLPKFASYVYKSQVSPDIEPILEPVTFWARGERSIGGVIPLIIFTNCDYIELQYGNKTKIDNIYPNRDAYKGIPYPPIIIDYDIVKPEMIGAWGMVWEDLTLKGFYKGNKVIERKFSREPIPTYLYVVPDDTILSATQKDATRIVVKILDQYGNLLPFINEVIKIEIEGPAKLQGPNEVALIGGEGHHHHHH | soluble |
| MNTDELEHRRFDDLFSLVADPGFLLVAWDLVRGNKGASAAGVDGSTASSIALWVGVEKFLDMLRSQIKDRSFQPMPVRERMIPKAGGKLRRLGIATITDRVVQASLKLARFGEAAPGKRTGRKTGTAPRADFTPAIGCAFRYSPVLEHHHHHH | not soluble |
| MAPVTPDAVNARQQRPADPALRRLMHPHHRNYTASKASAHSVKSVSRCGKSRSELGRMERVGSVARSICSRHTRHGVDRSHFSLRDFFRGISANFELGKDFLREMNTPIHVSEAVFLPLSLCTLSPGRCLRLSPFGHSLTLGSHCEICINRSQVHVPQEFSSTQLSFFNNVHKIIPNKTFYVSLLSSSPSAVKAGLSQPSLLYAYLVTGHFCGTICPIFSTNGKGRLIMHLLLQGTSLHIPETCLKLLCENIGPTYELAVDLVGDAFCIKVSPRDTVYEKAVNVDEDAIYEAIKDLECGDELRLQIINYTQLILENKQ | not soluble |
| MTDTQVTWLTQESHDRLKAELDQLIANRPVIAAEINDRREEGDLRENGGYHAAREEQGQQEARIRQLQDLLSNAKVGEAPKQSGVALPGSVVKVYYNGDKSDSETFLIATRQEGVSDGKLEVYSPNSPLGGALIDAKVGETRSYTVPNGSTVSVTLVSAEPYHS | soluble |
| MSDESEALLRVDHVKYRKAGDGKSPIGRLALFTDFIEWRDNASPEVFTCKFIRINGQRVSPPHKSKVQLQLILKNEDQATFVFLNPSASKEDLVKERDAVKEALQSALVKHRHRVNELAKSVESQSKQVELQAKQKILQEDRNLEKLYQNLVATKLITPDDFWSDYYQKEGVSEDKIGINGAFLANIVQQEGTNGVRLNLNPEIIQAIYSTYPAGQYWQNRENKKKCKEILKFTIQCEYLTRKISRSENYIQKKNLELVPHEMSEENFWKKFFQSHYFHREREVLPNPKDPFAECVRDDEEEMTKMTAEKIQRKRFDLEHIDDNGLRDFIHKSESQQKSAKTTLIKRCNYLSEKILATSWRSGEAAPTTSAAANQKKGFGVLDRLVAETETRLESEDLATKEAEDEVQIVRISSSAKASQAKYSKPDMTRYKALVTDYFQNSSVEDILHRNEMLLDQQEMETWEMEEAMETDNNEVPPPENWCQSAGDLAKVRDVHSAVREICRQFWKSFPPIDKASEEKLNRMAGTLSKYRDDIRNSDISKENLTHCIQMIDLAVDKFEAYEMKKMK | not soluble |
| MNRMSLAALLSCLPLVAWADNPVKLDTPVSGWRAGDGSAANYRQVVNYPASSVNVAADQATTARIRGAIESQPKDRPATLVVNGVSMPLKVDADGSFDRPFAFPSGSNSVEVRNAAGQSRRVQFYHGGGGGEVPAKLRVLLSWDSDNTDLDLHLVTPDGDHVWYGNRSLANGATLDVDVTTGYGPEIIATPTPQKGPYLVYVNYFGGGYGSSEDGAEQAAQDLTTARITLVTEEGTPNEKQETFLVPMRKPGELTLVKRFSYP | not soluble |
| MNIKRNIIFALESRKKDGVLIVENVPIRMRVNFASQRIEFTTGYRIDVAKWDADKQRVKNGCTNKLKQSASEINAALLGYYTELQEVFKRFEVAEVMPSPADVKSAFNARHRSDDVQTEQTSDKPDASAEFYKAFDEFVRVCGRQNDWTHATYEKFAAVKNHLRSFRADLSFSFFNEVGLTEYVRYLREVRKMRNSTIGKQLSFLKWFLRWSFGQGIHSNNAYDTFRPKLKDTQKKIIFLTWEELTKLREFEIPPAKQSLDRVRDVFLFQCFTGLRYSDVYNLRRSDIKEDHIEVTTIKTSDSLVIELNKHSKAILEKYQDVVFEHDKALPVITNQKMNEYLKELAELAGINEPIRQTYYKGNERIDEVTPKYALLGTHAGRRTFICNALALGIPPQVVMKWTGHSDYKAMKPYIDIADDIKANAMSKFNQL | not soluble |
| MSLGKHVTIGFAGPQADHGWLNAINDNAKSRAKKYGDVTLEITEGSNDTAAQIGQIETLINKKVDVLVVLPADGKALTQVGLKAMRAGIPVVNLDRIFNSPQAYRCWIGGDNYGMGLSAGRYIGEKLKDKPNARVVELAGLDNLELTKQRTQGFDAALKNYPNIRKVARQAAEFTVESGQSKMAQLLQAQSRFDALWNHDDDQGVGALRAIKQAGRDDFLMVGGAGALSAFQAIKADDGVLKATVLYPPTMAASAIDLARALGQGKGVGGLAEFEIPASLTLYSAVVDKDNVGQYMSTGFREGHHHHHH | soluble |
| MRGSHHHHHHTDPALRASSFQFEQIGVIRSPYKEKFAVPRQPGLVKSANGELHLIAPYNQADAVRGLEAFSHLWILFVFHQTMEGGWRPTVRPPRLGGNARMGVFATRSTFRPNPIGMSLVELKEVVCHKDSVILKLGSLDLVDGTPVVDIKPYLPFAESLPDASASYAQSAPAAEMAVSFTAEVEKQLLTLEKRYPQLTLFIREVLAQDPRPAYRKGEETGKTYAVWLHDFNVRWRVTDAGFEVFALEPRGLCGR | soluble |
| MGSDKIHHHHHHMIRKIVEIDQEKCNGCGICVPACAEGAIRIENGKAVLAADNLCDGLGACLGECPLDAIRIIERDADEFDEAAVEAHLGQTSRESHHAAHQPAPVHGGCPGSRAMVLDRPATESVRDVPRQESRLRQWPVQLHLVPTSAPYFRNADLLIAADCVPFAYADFHREFLDGRAVVVGCPKLDDNRFYTEKLTELIRVNDLKSITVVRMEVPCCGGIVMAARQALAASSKDIPLREVTVGISGELKGA | not soluble |
| MFKDFFNRTKKKKYLTVQDSKNNDVPAGIMTKCPKCKKIMYTKELAENLNVCFNCDHHIALTAYKRIEAISDEGSFTEFDKGMTSANPLDFPSYLEKIEKDQQKTGLKEAVVTGTAQLDGMKFGVAVMDSRFRMGSMGSVIGEKICRIIDYCTENRLPFILFSASGGARMQEGIISLMQMGKTSVSLKRHSDAGLLYISYLTHPTTGGVSASFASVGDINLSEPKALIGFAGRRVIEQTINEKLPDDFQTAEFLLEHGQLDKVVHRNNMRQTLSEILKIHQEVTK | not soluble |
| MSKRLPPLNALRVFDAAARHLSFTRAAEELFVTQAAVSHQIKSLEDFLGLKLFRRRNRSLLLTEEGQSYFLDIKEIFSQLTEATRKLQARSAKGALTVSLLPSFAIHWLVPRLSSFNSAYPGIDVRIQAVDRQEDKLADDVDVAIFYGRGNWPGLRVEKLYAEYLLPVCSPLLLTGEKPLKTPEDLAKHTLLHDASRRDWQTYTRQLGLNHINVQQGPIFSHSAMVLQAAIHGQGVALANNVMAQSEIEAGRLVCPFNDVLVSKNAFYLVCHDSQAELGKIAAFRQWILAKAAAEQEKFRFRYEQ | soluble |
| MGSDKIHHHHHHMNLNIAICDDDTNDIAIMKKNILQYTIETDNNIVVSSYFSASDILSDYKNHLYQIVLLDIEMPDINGMELARQLRDMDDDLLIIFTTSYPEYMHESFEVQPFQFITKPVDYTAIYKLFNNIIKKLYRNSKSIVIIDTDGEKNFVPLSDLLYISSMKENKLHLRYQLTDRALISKGTLSEAEKRLSSHGFVSPSRGFLVNLHQIRSITSTRLLLNNGFELPISRRRSKELQNIYSQHIINIL | not soluble |
| SGRKRFITDSYPVVKKREGPPGHNKGELAPELGEDTQSLSQEETELELLRQFDLAWQYGPCTGITRLQRWHRAEQMGLKPPVEVYQVLKTHPEDSRFQCSLWHLYPL | soluble |
